Data set [1] deals with T1, CC(C)(COP(=O)(O)OP(=O)(O)OC[C@H]1O[C@@H](n2cnc3c(N)ncnc32)[C@H](O)[C@@H]1OP(=O)(O)O)[C@@H](O)C(=O)NCCC(=O)NCCSC(=O)CC(=O)O.
T1 construct: ketosynthase-acyltransferase (KS-AT) didomain of PnC, recombinant, purified
In words: SucC/SucD - pyruvate kinase/lactate dehydrogenase coupled assay of CoA release. It counts as biochemical, Streptomyces platensis. To be noted: hydrolysis. From the text:
(§1) SucC/SucD - pyruvate kinase/lactate dehydrogenase coupled assay of CoA release on PnC_KS-AT

Data set [2] has as its system T2, CC(C)CC[C@@H](C(=O)O)C(=O)SCCNC(=O)CCNC(=O)[C@H](O)C(C)(C)COP(=O)(O)OP(=O)(O)OC[C@H]1O[C@@H](n2cnc3c(N)ncnc32)[C@H](O)[C@@H]1OP(=O)(O)O.
T2 construct: ketosynthase-acyltransferase (KS-AT) didomain of PnC, recombinant, purified
The description is as above. It counts as biochemical, Streptomyces platensis. To be noted: hydrolysis.
From the text: as §1

Data set [3] relates to T3, CCCCCC[C@@H](C(=O)O)C(=O)SCCNC(=O)CCNC(=O)[C@H](O)C(C)(C)COP(=O)(O)OP(=O)(O)OC[C@H]1O[C@@H](n2cnc3c(N)ncnc32)[C@H](O)[C@@H]1OP(=O)(O)O.
T3 construct: ketosynthase-acyltransferase (KS-AT) didomain of PnC, recombinant, purified
The data set is described as above. It counts as biochemical, Streptomyces platensis. To be noted: hydrolysis.
From the text: as §1

In data set [4] the test system is T4, CCCC[C@@H](C(=O)O)C(=O)SCCNC(=O)CCNC(=O)[C@H](O)C(C)(C)COP(=O)(O)OP(=O)(O)OC[C@H]1O[C@@H](n2cnc3c(N)ncnc32)[C@H](O)[C@@H]1OP(=O)(O)O.
T4 construct: ketosynthase-acyltransferase (KS-AT) didomain of PnC, recombinant, purified
Described as above. It counts as biochemical, Streptomyces platensis. As to conditions: hydrolysis.
From the text: as §1

For data set [5], the system named is T5, CC[C@@H](C(=O)O)C(=O)SCCNC(=O)CCNC(=O)[C@H](O)C(C)(C)COP(=O)(O)OP(=O)(O)OC[C@H]1O[C@@H](n2cnc3c(N)ncnc32)[C@H](O)[C@@H]1OP(=O)(O)O.
T5 construct: ketosynthase-acyltransferase (KS-AT) didomain of PnC, recombinant, purified
The description is as above. It counts as biochemical, Streptomyces platensis. As to conditions: hydrolysis.
From the text: as §1

Data set [6] concerns T6, C[C@@H](C(=O)O)C(=O)SCCNC(=O)CCNC(=O)[C@H](O)C(C)(C)COP(=O)(O)OP(=O)(O)OC[C@H]1O[C@@H](n2cnc3c(N)ncnc32)[C@H](O)[C@@H]1OP(=O)(O)O.
T6 construct: ketosynthase-acyltransferase (KS-AT) didomain of PnC, recombinant, purified
The data set is described as above. It counts as biochemical, Streptomyces platensis. To be noted: hydrolysis.
From the text: as §1

For data set [7], the system named is T7, CC(C)(COP(=O)(O)OP(=O)(O)OC[C@H]1O[C@@H](n2cnc3c(N)ncnc32)[C@H](O)[C@@H]1OP(=O)(O)O)[C@@H](O)C(=O)NCCC(=O)NCCSC(=O)CC(=O)O.
T7 construct: KS-AT didomain of PnB first module (Pn PKS module 2), recombinant, purified
The description is as above. It counts as biochemical, Streptomyces platensis. As to conditions: hydrolysis.

Data set [8] shares this test system. In words: purified protein, by the assay type. Details: SucC/SucD-coupled CoA-SH release assay, NADH absorbance 340 nm, apparent KM for transacylation to ACP. To be noted: pH 7.4; 30.0 °C. How it is done:
(§2) Acyltransferase steady state kinetic assay. The assay buffer (200 mM Tris, glycerol 5%v/v, 20 mM MgCl2, pH 7.4) was used to set up all other solutions for this assay. Four master mixes (MM1 to MM4) in 4x concentration were prepared. For MM1 containing the KS-AT proteins (KS-AT or KS-ATS->A mutants), the enzymes were adjusted to 2 µM (for transacylation) or to 4 µM (for hydrolysis) with assay buffer additionally containing 1 mM DTT and 0.1 mg/mL BSA. For MM2 highly pure and concentrated ACP were adjusted to 1600 µM concentration with the assay buffer. Substrate acyl-CoA containing MM3 was prepared with the assay buffer in varying substrate concentrations ranging from (4x concentration indicated here) 1 µM to 1 mM. MM4 contained 1.6 mM NADH, 20 mM ATP, 30 mM succinate, 10 mM phosphoenolpyruvate (stock solutions should be resuspended in assay buffer, or Tris 200 mM, pH 7.4). First, these compounds were mixed and assay buffer was added, leaving volume for Pyruvate Kinase/Lactic Dehydrogenase (PK/LDH), SucC and SucD. After mixing of the compounds, the enzymes were added to MM4 like following: 0.06 mM SucC, 0.06 mM SucD and 20% v/v of PK/LDH (Sigma-Aldrich) (40 µL PK/LDH for 200 µL MM4). To measure transacylation 25 µL MM3, 25 µL MM4, 25 µL MM2 were mixed and incubated 30 °C for one minute. The reaction was started using 25 µL MM1. To measure hydrolysis 25 µL MM3, 25 µL MM4, 25 µL assay buffer were mixed, incubated at 30 °C for one minute. The reaction was started with 25 µL MM1. In both cases after starting the reaction, the mixture was immediately transferred into a 1 cm quartz cuvette, preheated to 30 °C and the absorption was monitored at 340 nm with a Cary 60 UV vis (Agilent technologies). The reactions were measured in three to four technical replicates. Simultaneous to 16 Scheme S1: Steady state kinetic assay, relying on purified proteins. KS-AT didomains and standalone ACPs are used. Upon covalent binding of the acyl-residue to the AT, CoA-SH is released. With no ACP acceptor available, the acyl-residue is subsequently hydrolyzed by nucleophilic attack of water and the AT can bind a new acyl-residue. If holo-ACP is available, the acyl-residue is transferred and the AT can bind a new acyl-residue. Free CoA-SH is converted to succinyl-CoA by E. coli SucC/SucD. In this reaction ADP is produced, which can be used by pyruvate kinase/lactic dehydrogenase (PK/LDH) under NADH consumption. For Michaelis Menten plots with data collected with this assay refer to Figure S6. With the SucC/SucD‐based assay we determined kinetic parameters of PnB_KS‐AT1, PnB_KS‐AT2, PnC_KS‐AT and PnD_KS‐AT for hydrolysis and transacylation (Table S3, Figure S7). As negative control AT catalytic knockouts were used. […] These measurements were independently confirmed by mass spectrometric analysis of acylated ACPs, in which we exclusively detected malonyl‐ACP formation (Tables S1 and S4). […] K M between 4 μM to 11 μM. Rates for transacylation were between 10‐ to 35‐ fold higher (app. k cat of 28 min^−1–140 min^−1) at 2.5 to 7.7 fold higher catalytic efficiency (Table S3).

Data set [9] deals with T8, CC(C)(COP(=O)(O)OP(=O)(O)OC[C@H]1O[C@@H](n2cnc3c(N)ncnc32)[C@H](O)[C@@H]1OP(=O)(O)O)[C@@H](O)C(=O)NCCC(=O)NCCSC(=O)CC(=O)O.
T8 construct: KS-AT didomain of PnD, recombinant, purified
Description: SucC/SucD - pyruvate kinase/lactate dehydrogenase coupled assay of CoA release. To be noted: hydrolysis. The class given is biochemical, Streptomyces platensis.

Data set [10] shares this test system. In words: purified protein, by the assay type. Details: SucC/SucD-coupled CoA-SH release assay, NADH absorbance 340 nm, apparent KM for transacylation to ACP. To be noted: pH 7.4; 30.0 °C. Here is the method:
as §2

For data set [11], the system named is T9, CC(C)(COP(=O)(O)OP(=O)(O)OC[C@H]1O[C@@H](n2cnc3c(N)ncnc32)[C@H](O)[C@@H]1OP(=O)(O)O)[C@@H](O)C(=O)NCCC(=O)NCCSC(=O)CC(=O)O.
T9 construct: KS-AT didomain of PnB second module (Pn PKS module 3), recombinant, purified
Description: SucC/SucD - pyruvate kinase/lactate dehydrogenase coupled assay of CoA release. It counts as biochemical, Streptomyces platensis. To be noted: hydrolysis.

The test system is the same in data set [12]. Description: purified protein, by the assay type. More on the design: SucC/SucD-coupled CoA-SH release assay, NADH absorbance 340 nm, apparent KM for transacylation to ACP. To be noted: pH 7.4; 30.0 °C. Here is the method:
as §2

Four substances from PMC7496768, “Understanding Substrate Selectivity of Phoslactomycin Polyketide Synthase by Using Reconstituted in Vitro Systems” (Chembiochem, 2020) can be followed below.

Take PnC_KS-AT (Streptomyces platensis): the Michaelis constant (Km) in [1] stood at 53 ± 41 µM; in [2], 20 ± 6.7 µM; in data set [3], 19 ± 15.5 µM; in data set [4], 6.2 ± 1.4 µM; in data set [5], 6 ± 1.8 µM; in data set [6] it was 73 ± 33 µM. Besides, the kcat in [1] worked out at 0.01 ± 0.0025 s⁻¹; in data set [2], 0.0133 ± 0.00133 s⁻¹; in [3], 0.00667 ± 0.00133 s⁻¹; in data set [4] it was 0.0117 ± 0.000667 s⁻¹; in data set [5], 0.015 ± 0.001 s⁻¹; in data set [6] it was 0.0233 ± 0.005 s⁻¹. For the same substance, the kcat/Km in data set [1] came out at 167 M⁻¹ s⁻¹; in data set [2] it was 667 M⁻¹ s⁻¹; in data set [3] it was 333 M⁻¹ s⁻¹; in [4], 1830 M⁻¹ s⁻¹; in data set [5] it was 2500 M⁻¹ s⁻¹; in [6] it was 333 M⁻¹ s⁻¹.

Regarding PnB_KS-AT1 (Streptomyces platensis), in data set [7], the Michaelis constant (Km) was found to be 4.3 ± 0.8 µM and the turnover number (kcat) was found to be 0.067 ± 0.0025 s⁻¹. For the same substance, in [8], the Michaelis constant (Km) came to 27 ± 2.6 µM, the turnover number (kcat) is 2.33 ± 0.0717 s⁻¹ and the kcat/Km is 86700 M⁻¹ s⁻¹.

As to PnD_KS-AT (Streptomyces platensis), in data set [9], the Km is 11.5 ± 3.3 µM and the catalytic constant (kcat) turned out to be 0.05 ± 0.0033 s⁻¹. In addition, in [10], the Km is 44 ± 7.2 µM and the kcat was determined as 0.467 ± 0.03 s⁻¹.

Take PnB_KS-AT2 (Streptomyces platensis): in data set [11], the Michaelis constant (Km) was found to be 5.2 ± 0.8 µM and the kcat turned out to be 0.05 ± 0.00233 s⁻¹. For the same substance, in [12], the Michaelis constant (Km) was found to be 16 ± 1.7 µM and the catalytic constant (kcat) stood at 1.23 ± 0.0333 s⁻¹.

By Km is commonly meant the substrate concentration at which the rate is half of its maximum. The term kcat denotes the maximal rate divided by the concentration of active sites. As usually defined, the kcat/Km is the turnover number divided by the Michaelis constant.
